Measured values taken from a protein production outcome set (Wang et al. 2014).

Experiment: label from the status in PepcDB records

Sequence: MAHEGEQFIKDIQREYVDFLDDEEDQGIYAGHVKDMIAEKSKRLIVNVNDLKRKNPQRALGLLSNAADEQLAFGRALKEYASTVDPGYAKMHEDLFVGFEGCFGNRHVTPRSLTSIYLGNMVCVEGIVTKVSLIRPKVVRSVHYCPNTRKVMERKYTDLTSFEAVPSGAAYPTKDEDGNLLETEYGLSVYKDHQTLTIQEMPEKAPAGQLPRSVDIVCDDDLVDRCKPGDRVQIVGSYRCLPGKRGGYTSGTFRTVLLANNISLLSKESNLDISREDIMLCKKLAKNNDIFELLSKSLAPSIHGHAYVKQAILCLLLGGVEKILPNGTRLRGDINVLLIGDPSVAKSQLLRYVLNTAPRAIPTTGRGSSGVGLTAAVTTDQETGERRLEAGAMVLADRGVVCIDEFDKMSDIDRTAIHEVMEQGRVTISKAGIHASLNARCSVLAAANPVYGRYDQYKTPMENIGLQDSLLSRFDLLFVMLDVIDSDVDQMISDHVVRMHRYRNPKEADGEPLSMGSSYADSLSFVSSSEEKKDTEVYEKYDALLHGKSRQRHEKILSVEFMRKYIHIAKCMKPKLGEQACEAIANEYSRLRSQEAVETDVARTQPITARTLETLIRLSTAHARARMSKSVTIDDAHAAIELVQFAYFKKVLDKDRPSKRRRNSGSDAEDDNGEASSQRSPSRRSKRTRTATVGADSDEEDIEPPQPDAGDLTRRETRRSLPARSVAMLMASPSSEEQSVATSTTEPAIISDARLGEFKNNLQRLFREAREQSLALARITTAINVGSQEPFTAGEIEAAVHRMTEDNQIMVADDIVFLI
- protein production: failed

Sequence: MSRDDNGWSKLYPDLLRSIFESLSCLDFHRAGTVCSNWYAVSRSCPLYPWRIVFRGKNSVLFDPIQDKIYTKNLLGIDLSKIHCLASYGNWILIVDPRLDFYLLNVFTRETINLPSLESSLRGDRPFRFIRNDDESGYFLELYGTKFLLTWNDFRFEKTAILWVNGRNGDYVVAWAIKQFYIFSYKKIGNDDDDKRWSITCTQCEDMAYKDNKLYVYTFDHYINILDFSGNSPKEPMEENPYLSHPFSFVDAIYKLRLAVTREGKVLIVLSLVGLDKKICIYKLNLKIGDWEIVESLGDEMLIFGHGVTIRAPDKDISGGGLKSDSICFLYDDYLSDHYLTMKRQPICGVFDLATSTITWHTRLEDLSSKICWFVPGCA
- protein production: failed

Sequence: LNLMMTPMLKVLATPERLAFGLKQMVSYLHANGVTAYMEPGALYTPDMWKLYEQILGAPETPMYATFIADGRGIVDRVGLDGALDAVEQQIAVAPEAPGRKLMFFPGQIKLFADGAIISQLMQMKDGYLDGHQGEWIIPPDELERRARLFWNAGYQIHTHVNGDLGLEKLLDILEKLNAEHPRPDHRSVIVHFANSTEDQVARIKRLGALVSANPYYTTGFADKYSAVGLGPERADAMVRAKSVLDQGVPLSYHSDLPMAPSAPLYLAWCGVNRLTPSGRVAGPEQRVSVDAALRAITIEAAYSWRHEDQ
- protein production: failed

Sequence: MADFTLSKSLFSGKYRNASSTPGNIAYALFVLFCFWAGAQLLNLLVHAPGVYERLMQVQETGRPRVEIGLGVGTIFGLIPFLVGCLIFAVVALWLHWRHRRQ
- protein production: failed

Sequence: MIMSVCLPWLARCRRFLIVSLAFAMLLLGIWGTLPFSLSDHGTAIAALEDDRYDGNIFVVYAGNGSLVPPRLNLRESFERKLPVILVYYLDDSKDCKQYAFIVSRMQEFYGRVASIIPVSVDSIPDQKRFRRDEPGYYYSGGVPQTVILDKSGKKIFDAQGALKFEVVDDVLRDLFDLLPRSESMELKQRTYNEFNSELVD
- protein production: failed

Sequence: MITQVNQLDELQLKDLKTLRAECKKNDGSIPNLYIHILKQHRSLPTSFLYYQNGALIGFLSIYFFYDDAVEVAVLVSPQYRRQGIAKQLIKEALPLIKSQNYFNLIFSCPSRLNDNWLTSKGFTYLHSEYFMERDDLNPILDYIR
- protein production: not failed

Sequence: NIPEIENANLKPALKDSVLPDGFYSTTNHPTHVKVNDEWIEVANPKMDAVIVVYPEEKRAETKVIRKVKKGDFVLIGHNGIRVMPPEKSREAGQLFEFMNSEVSSEKPKEAIIKRIAKEMHEIREEYKKTGTGGIAIVGGPAIIHTGGGPALAKMVELGYIQAILAGNALATHDIESALYGTSLGVNIKTAKPVTGGHKHHIYAINAINDAGNIKNAVESGVLKEGIMYQCIKNNIPYVLAGSIRDDGPIPDVITDSMVAQDKMRTTVMDKKMVIMLSTLLHSVATGNLMPSYIKTVCVDIQPSTVTKLMDRGTSQAIGVVTDVGVFLVLLLKELERLELQE
- protein production: not failed

Sequence: MSLADISVIQSLPLSGSQAVTGRALNAGARLYFDWLNLNGGINGETIRLVARDDEQKIEQTVRNVRDMARVDNPVALLTVVGTANVEALMREGVLAEARLPLVGPATGASSMTTDPLVFPIKASYQQEIDKMITALVTIGVTRIGVLYQEDALGKEAITGVERTLKAHALAITAMASYPRNTANVGPAVDKLLAADVQAIFLGATAEPAAQFVRQYRARGGEAQLLGLSSIDPGILQKVAGLDAVRGYSLALVMPNPGKSVNPVIREFNRARAAVGAKDVDLSFRAVEGFVAAKVLAEAIRRAGPKPTREQVRHALTELRDYDVGGGFTVDFTDRSRPGSHYIELGVVGPNGLVIQEGHHHHHH
- protein production: not failed

Sequence: MPDFVNLWIYLSSTPLFGLTATLTVYLSAHAMYLRLGQVPLANPVLWSMVVLAAGLLAFGVPYPTYFAGAQFIHFLLGPAVVALAWPLWMRRAELRRRWARLLWAALFGGAVACASAVLLGWAVGLPRDIILSLAPKSVTAPVAMGLSETLGGIPALSAVFAALTGLVGALTGKYLFDLLGAVRGRQDWADRGFALGTVSHGIGAARAIQVNADAGAYAGLALGLQVILASLLIPVAFRLAAGLGGS
- protein production: failed

Sequence: ARFMAVSSELKDDTRTYTVAGQVFFASSDRFMSHFDFREAVERVVIDVTHAHFWDITSVSALDRVVIKFRREGTEVEIKGMNDATRTLVDRFGVHDKPEEVEKLMGGH
- protein production: not failed

Sequence: MRWNCSACWASSASANAGRRRHFDTSLWRASCSGYGARARQIQAAWIRADTPESTRVPATRRIRLLNPVVPVRSLSACRHLTRSRPPLRSFTMPHVVARSGDVMSSAAPPSCTSLLGLSLSMFVAPCTLTAAPLDTPVVNAPAPTPPTPDQAYPELFQAVQSGELFDDQKHFVDFLPLRDPALINADYLAQHDHPGFDLRKFVDANFEESPPVQTDAIRQDTALREHIDLLWPKLVRSQNHVPPYSSLLSLPHPYVVPGGRFREVYYWDSYFTMLGLVKSGQTTLSRQMLDNFAYLIDTYGHIPNGNRSYYLSRSQPPFFSYMVELQAGVEGQAVYQRYLPQLQKEYAYWMQGSDDVQPGQAARHVVRLADGSVLNRYWDERDTPRPEAWLHDTRTAAEVKDRPAAEVYRDLRAGAESGWDYTSRWLADGQNLRTIRTTAIIPIDLNSLLYHLERTLAQACAQPGAACSRDYAALAQQRKQAIDAHLWNKAGYYADYDWQTRTLSDQITAAALYPLFAGLASDDHAKRTASTVRRTLVRPGGLATTAVKTGQQWDEPNGWAPLQWVAVDGLRRYGEQALARTIGERFLAQVQALFAREHKLVEKYGLETNAAGGGGGEYALQDGFGWTNGVTLMLLNLYPGKGAKAAPAKRVRKTEAAAR
- protein production: failed

Sequence: MIPIHPVGGSQTPASSTAAAGTGDAVTSVFLQPGRISLPASPPLSLYVHVPWCVRKCPYCDFNSHAEPEAGIPEDRFLAAIRQDLEAALPMVWGRRVHTIFIGGGTPSLLSARGLDTLLSDIRMLLPVDADAEITMEANPGTFEAERFRSYRASGVNRLSIGIQSFNDTHLQALGRIHSAAEARAAIDIARAHFDNINLDLMFALPGQTLAECEADVEAALSFGTSHVSLYHLTLEPNTYFAKHPPALPDDDTAFAMQDWIHARLAAAGYEHYEVSAYARPGKRCKHNLNYWQFGDYLGIGPGAHGKLSFPHRVIRDMRHKHPETYLRQAETAGGATVVQEQREVDAADLPFEFMLNALRLTDGFPVTLFQERTGLPLRGIERELDAAERRGLLVHDHATIRPTELGQRFLNDLQALFLADDEN
- protein production: failed

Sequence: VNNTKVTNSEESLSVVDDFVKSVWPTAKQAASLIGLDPKLLVAQAALETGWGRFVTRDADGSSSNNLFNIKTGSHSEVESIQVKTTEYIADTPIKINASFRKYPSIEHSFHDYVSLIKGSERYQMALANAENPEIFVSELNKAGYATDPNYSNKILSIYHGDE
- protein production: failed

Sequence: MIALHTLLCADTPDDTPVCFDETTTMTRGMFRAHVAACIAAWSDRCANRYALCIDDPFAFACALFALLASGKAVVIPASSAPAYLASIADAYDSALTDGDMEGIISQAAQPPGAALLRPIAPHAPITLYTSGSSAAPKAIHKTLAQFDAEVRTLEDHWGEWIGPGAILASVPHHHIYGLLFRIFWPLASGRAFGRRTYAEPHALQTALTRRETAAIVSSPAQLARWPSLPGFDTLSPLPAAVFSSGGPLDEAAAATFASAHGTAPTEIYGSTETGGIAWRRRNESDAWQAFANVAVRREADGALSVRSPHLGHPDWHRTDDAAEFDDAGRFRLRGRMDRIVKLDGKRVSLPEIENWLGLHPYVAQSAAVLLPGASRERLGVLSALTSAGVEALRQHGRIGLAKTLRRHLAAYVAPTLIPRKWRFRMSLPVDARGKLPASAVAASFAAGRKGFEMLSHVRDAEGDHYELRVPPELVHFRGHFPGLPILPGVVLVDWIACLAAELADSTRSIRSIDQLKFMAPVPPAALVSVQLTHEPQRCRVRFRARLGTRECASGALVYREAD
- protein production: failed

Sequence: MFKRIAQTAGFTGLLAALLLTLLQSFWVVPLIQQAETYEKAPAEHVHEHADGAVAEHSHAHDEAAWEPENGWQRVLSTTGGNLVVAVGFALMLAGLYTLRAPGRTAQGAWWGLAGFAVFVLAPTLGLPPELPGTAAAELSQRQLWWIGTAASTAAGLALLVFGQNWLLKVLGAAILVVPHVIGAPQPLVHESLAPEALESQFRVASLLTNALFWVALGLISAWLFRRSNVHTDNAHSNHA
- protein production: failed

Sequence: MAPRTNRPRTNRPRTGRPPAPDAPAAPDAPTAPDARRRRLPMRFLLPSLLLLAVMAMLMLRGFVHSEILADHRIRPPAATDQVPEKILDGGPVIDTRGGRTTSLSLPDHRLVLTFDDGPDPQWTPKVLDVLKKHHAHAVFFVTGTMTSRHPDLVRRLVAEGHEVGVHTFNHPDLAYQSKKRIDWELSQNQLALAGAAGIRTSLFRPPYSSFADAMDNESWPVTEYIGTRGYITVVNNTDSEDWQKPGVDEIIRRATPRGGKGAVVLMHDSGGDRHQTVQALDRFLPELQRRGYEFENLSEALGAPSAHTPVTGVDRWKGNAWIFLVQAADRITGMLVVGLAVIGGLVLTRFGLMLLLSGTHARRVRRPDFRWGPAPVTEPVSVLVPAYNEAKCIENTVRSLTASEHPVEVIVVDDGSSDGTARLVESLRLPDVRVVRQHNAGKPAALNRGLANARHDLIVMMDGDTVFEPATVRELVQPFADPRVGAVAGNAKVGNRDSLIGAWQHIEYVMGFNLDRRMYDLLRCMPTIPGAVGAFRRSALERVGGMSDDTLAEDTDITMALHRDGWRVVYAEKARAWTEAPESVQQLWSQRYRWSYGTMQAIWKHRRALVERGPSGRFGRVGLPLVALFMVVAPLLAPLIDVFLLYGVIFGPTQKTVLAWLGVLAVQAVCAAYAFRLDRERMTHLVSLPLQQILYRQLMYVVLLQSWITALVGGRLRWQKLRRTGVVEAPGSIPQQRTAGSESERRPVG
- protein production: failed

Sequence: AESESFVLDFSQPSADYLDFRNRLQADHVCLENCVLKDKAIAGTVKVQNLAFEKTVKIRMTFDTWKSYTDFPCQYVKDTYAGSDRDTFSFDISLPEKIQSYERMEFAVYYECNGQTYWDSNRGKNYRIIRAELKSTQGMTKPHSGPDLG
- protein production: not failed

Sequence: LQESEARFQAFMNNSPSASWITDDHGRMLYLSQTYVRTFQLPFDKVEDVTGKTVFELYTPEVAQPFLDNIHRVAQTQQILETIEKAPRLDGTLGDFLVYKFPLPATTGELFIGGVAVDISDKIRAEQALQKLNQELEAR
- protein production: not failed
